Experimental data taken from patent US12099068B2, “Biomarkers for graft-versus-host disease” (Incyte Corporation, priority 2018, dated 2024).

System: plasma proteins
Test: Plasma proteins modulated between baseline and day 28 in responders (CR, VGPR, PR; n = 19), Example 6 (Table 13)
Format: in vivo, human
Conditions: plasma protein (OLINK NPX); responders (CR, VGPR, PR; n = 19); itacitinib 200 mg or 300 mg QD with corticosteroids; day 28 vs baseline
Procedure, shortened: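 Plasma at baseline/screening and day 28 profiled for >1000 proteins by OLINK proximity extension assay, reported as NPX (log2). Steroid-naive and steroid-refractory patients pooled. Paired and unpaired t tests, ANOVA and Pearson correlation applied; significance at P<0.05.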

B1: DNER (protein, UniProt Q8NFT8 35-737, looked up)
Delta and Notch-like …: NPVPAAPLSAPGPCAAQPCRNGGVCTSRPEPDPQHPAPAGEPGYSCTCPAGISGANCQLVADPCASNPCHHGNCSSSSSSSSDGYLCICNEGYEGPNCEQALPSLPATGWTESMAPRQLQPVPATQEPDKILPRSQATVTLPTWQPKTGQKVVEMKWDQVEVIPDIACGNASSNSSAGGRLVSFEVPQNTSVKIRQDATASLILLWKVTATGFQQCSLIDGRSVTPLQASGGLVLLEEMLALGNNHFIGFVNDSVTKSIVALRLTLVVKVSTCVPGESHANDLECSGKGKCTTKPSEATFSCTCEEQYVGTFCEEYDACQRKPCQNNASCIDANEKQDGSNFTCVCLPGYTGELCQSKIDYCILDPCRNGATCISSLSGFTCQCPEGYFGSACEEKVDPCASSPCQNNGTCYVDGVHFTCNCSPGFTGPTCAQLIDFCALSPCAHGTCRSVGTSYKCLCDPGYHGLYCEEEYNECLSAPCLNAATCRDLVNGYECVCLAEYKGTHCELYKDPCANVSCLNGATCDSDGLNGTCICAPGFTGEECDIDINECDSNPCHHGGSCLDQPNGYNCHCPHGWVGANCEIHLQWKSGHMAESLTNMPRHSLYIIIGALCVAFILMLIILIVGICRISRIEYQGSSRPAYEEFYNCRSIDSEFSNAIASIRHARFGKKSRPAMYDVSPIAYEDYSPDDKPLVTLIKTKDL
Fold Change, Increased Expression from Baseline to Day 28: 1.2957

B2: CLEC4G (protein, UniProt Q6UXB4 1-293, looked up)
C-type lectin domain family 4 …: MDTTRYSKWGGSSEEVPGGPWGRWVHWSRRPLFLALAVLVTTVLWAVILSILLSKASTERAALLDGHDLLRTNASKQTAALGALKEEVGDCHSCCSGTQAQLQTTRAELGEAQAKLMEQESALRELRERVTQGLAEAGRGREDVRTELFRALEAVRLQNNSCEPCPTSWLSFEGSCYFFSVPKTTWAAAQDHCADASAHLVIVGGLDEQGFLTRNTRGRGYWLGLRAVRHLGKVQGYQWVDGVSLSFSHWNQGEPNDAWGRENCVMMLHTGLWNDAPCDSEKDGWICEKRHNC
Fold Change, Decreased Expression from Baseline to Day 28: −1.1865

B3: FCRL6 (protein, UniProt Q6DN72 20-434, looked up)
Fc receptor-like protein 6: LYLQAWPNPVFEGDALTLRCQGWKNTPLSQVKFYRDGKFLHFSKENQTLSMGAATVQSRGQYSCSGQVMYIPQTFTQTSETAMVQVQELFPPPVLSAIPSPEPREGSLVTLRCQTKLHPLRSALRLLFSFHKDGHTLQDRGPHPELCIPGAKEGDSGLYWCEVAPEGGQVQKQSPQLEVRVQAPVSRPVLTLHHGPADPAVGDMVQLLCEAQRGSPPILYSFYLDEKIVGNHSAPCGGTTSLLFPVKSEQDAGNYSCEAENSVSRERSEPKKLSLKGSQVLFTPASNWLVPWLPASLLGLMVIAAALLVYVRSWRKAGPLPSQIPPTAPGGEQCPLYANVHHQKGKDEGVVYSVVHRTSKRSEARSAEFTVGRKDSSIICAEVRCLQPSEVSSTEVNMRSRTLQEPLSDCEEVLC
Fold Change, Decreased Expression from Baseline to Day 28: −1.3556

B4: CEACAM8 (protein, UniProt P31997 35-320, looked up)
Cell adhesion molecule CEACAM8: QLTIEAVPSNAAEGKEVLLLVHNLPQDPRGYNWYKGETVDANRRIIGYVISNQQITPGPAYSNRETIYPNASLLMRNVTRNDTGSYTLQVIKLNLMSEEVTGQFSVHPETPKPSISSNNSNPVEDKDAVAFTCEPETQNTTYLWWVNGQSLPVSPRLQLSNGNRTLTLLSVTRNDVGPYECEIQNPASANFSDPVTLNVLYGPDAPTISPSDTYYHAGVNLNLSCHAASNPPSQYSWSVNGTFQQYTQKLFIPNITTKNSGSYACHTTNSATGRNRTTVRMITVSD
Fold Change, Decreased Expression from Baseline to Day 28: −1.6177

B5: FCRL1 (protein, UniProt Q96LA6 17-429, looked up)
Fc receptor-like protein 1: AELFLIASPSHPTEGSPVTLTCKMPFLQSSDAQFQFCFFRDTRALGPGWSSSPKLQIAAMWKEDTGSYWCEAQTMASKVLRSRRSQINVHRVPVADVSLETQPPGGQVMEGDRLVLICSVAMGTGDITFLWYKGAVGLNLQSKTQRSLTAEYEIPSVRESDAEQYYCVAENGYGPSPSGLVSITVRIPVSRPILMLRAPRAQAAVEDVLELHCEALRGSPPILYWFYHEDITLGSRSAPSGGGASFNLSLTEEHSGNYSCEANNGLGAQRSEAVTLNFTVPTGARSNHLTSGVIEGLLSTLGPATVALLFCYGLKRKIGRRSARDPLRSLPSPLPQEFTYLNSPTPGQLQPIYENVNVVSGDEVYSLAYYNQPEQESVAAETLGTHMEDKVSLDIYSRLRKANITDVDYEDAM
Fold Change, Decreased Expression from Baseline to Day 28: −1.3733

B6: GZMH (protein, UniProt P20718 21-246, looked up)
Granzyme H: IIGGHEAKPHSRPYMAFVQFLQEKSRKRCGGILVRKDFVLTAAHCQGSSINVTLGAHNIKEQERTQQFIPVKRPIPHPAYNPKNFSNDIMLLQLERKAKWTTAVRPLRLPSSKAQVKPGQLCSVAGWGYVSMSTLATTLQEVLLTVQKDCQCERLFHGNYSRATEICVGDPKKTQTGFKGDSGGPLVCKDVAQGILSYGNKKGTPPGVYIKVSHFLPWIKRTMKRL
Fold Change, Decreased Expression from Baseline to Day 28: −1.494

B7: SEMA7A (protein, UniProt O75326 45-648, looked up)
Semaphorin-7A: QGHLRSGPRIFAVWKGHVGQDRVDFGQTEPHTVLFHEPGSSSVWVGGRGKVYLFDFPEGKNASVRTVNIGSTKGSCLDKRDCENYITLLERRSEGLLACGTNARHPSCWNLVNGTVVPLGEMRGYAPFSPDENSLVLFEGDEVYSTIRKQEYNGKIPRFRRIRGESELYTSDTVMQNPQFIKATIVHQDQAYDDKIYYFFREDNPDKNPEAPLNVSRVAQLCRGDQGGESSLSVSKWNTFLKAMLVCSDAATNKNFNRLQDVFLLPDPSGQWRDTRVYGVFSNPWNYSAVCVYSLGDIDKVFRTSSLKGYHSSLPNPRPGKCLPDQQPIPTETFQVADRHPEVAQRVEPMGPLKTPLFHSKYHYQKVAVHRMQASHGETFHVLYLTTDRGTIHKVVEPGEQEHSFAFNIMEIQPFRRAAAIQTMSLDAERRKLYVSSQWEVSQVPLDLCEVYGGGCHGCLMSRDPYCGWDQGRCISIYSSERSVLQSINPAEPHKECPNPKPDKAPLQKVSLAPNSRYYLSCPMESRHATYSWRHKENVEQSCEPGHQSPNCILFIENLTAQQYGHYFCEAQEGSYFREAQHWQLLPEDGIMAEHLLGHACALA
Fold Change, Decreased Expression from Baseline to Day 28: −1.1335

B8: PRDX3 (protein, UniProt P30048 62-256, looked up)
Thioredoxin-dependent …: APAVTQHAPYFKGTAVVNGEFKDLSLDDFKGKYLVLFFYPLDFTFVCPTEIVAFSDKANEFHDVNCEVVAVSVDSHFSHLAWINTPRKNGGLGHMNIALLSDLTKQISRDYGVLLEGSGLALRGLFIIDPNGVIKHLSVNDLPVGRSVEETLRLVKAFQYVETHGEVCPANWTPDSPTIKPSPAASKEYFQKVNQ
Fold Change, Decreased Expression from Baseline to Day 28: −1.199

B9: LYVE1 (protein, UniProt Q9Y5Y7 20-322, looked up)
Lymphatic vessel endothelial …: LVQGSLRAEELSIQVSCRIMGITLVSKKANQQLNFTEAKEACRLLGLSLAGKDQVETALKASFETCSYGWVGDGFVVISRISPNPKCGKNGVGVLIWKVPVSRQFAAYCYNSSDTWTNSCIPEIITTKDPIFNTQTATQTTEFIVSDSTYSVASPYSTIPAPTTTPPAPASTSIPRRKKLICVTEVFMETSTMSTETEPFVENKAAFKNEAAGFGGVPTALLVLALLFFGAAAGLGFCYVKRYVKAFPFTNKNQQKEMIETKVVKEEKANDSNPNEESKKTDKNPEESKSPSKTTVRCLEAEV
Fold Change, Decreased Expression from Baseline to Day 28: −1.227

B10: FADD (protein, UniProt Q13158 1-208, looked up)
FAS-associated death domain …: MDPFLVLLHSVSSSLSSSELTELKFLCLGRVGKRKLERVQSGLDLFSMLLEQNDLEPGHTELLRELLASLRRHDLLRRVDDFEAGAAAGAAPGEEDLCAAFNVICDNVGKDWRRLARQLKVSDTKIDSIEDRYPRNLTERVRESLRIWKNTEKENATVAHLVGALRSCQMNLVADLVQEVQQARDLQNRSGAMSPMSWNSDASTSEAS
Fold Change, Decreased Expression from Baseline to Day 28: −1.546

B11: EGF (protein, UniProt P01133 23-1207, looked up)
Pro-epidermal growth factor: PQHWSCPEGTLAGNGNSTCVGPAPFLIFSHGNSIFRIDTEGTNYEQLVVDAGVSVIMDFHYNEKRIYWVDLERQLLQRVFLNGSRQERVCNIEKNVSGMAINWINEEVIWSNQQEGIITVTDMKGNNSHILLSALKYPANVAVDPVERFIFWSSEVAGSLYRADLDGVGVKALLETSEKITAVSLDVLDKRLFWIQYNREGSNSLICSCDYDGGSVHISKHPTQHNLFAMSLFGDRIFYSTWKMKTIWIANKHTGKDMVRINLHSSFVPLGELKVVHPLAQPKAEDDTWEPEQKLCKLRKGNCSSTVCGQDLQSHLCMCAEGYALSRDRKYCEDVNECAFWNHGCTLGCKNTPGSYYCTCPVGFVLLPDGKRCHQLVSCPRNVSECSHDCVLTSEGPLCFCPEGSVLERDGKTCSGCSSPDNGGCSQLCVPLSPVSWECDCFPGYDLQLDEKSCAASGPQPFLLFANSQDIRHMHFDGTDYGTLLSQQMGMVYALDHDPVENKIYFAHTALKWIERANMDGSQRERLIEEGVDVPEGLAVDWIGRRFYWTDRGKSLIGRSDLNGKRSKIITKENISQPRGIAVHPMAKRLFWTDTGINPRIESSSLQGLGRLVIASSDLIWPSGITIDFLTDKLYWCDAKQSVIEMANLDGSKRRRLTQNDVGHPFAVAVFEDYVWFSDWAMPSVMRVNKRTGKDRVRLQGSMLKPSSLVVVHPLAKPGADPCLYQNGGCEHICKKRLGTAWCSCREGFMKASDGKTCLALDGHQLLAGGEVDLKNQVTPLDILSKTRVSEDNITESQHMLVAEIMVSDQDDCAPVGCSMYARCISEGEDATCQCLKGFAGDGKLCSDIDECEMGVPVCPPASSKCINTEGGYVCRCSEGYQGDGIHCLDIDECQLGEHSCGENASCTNTEGGYTCMCAGRLSEPGLICPDSTPPPHLREDDHHYSVRNSDSECPLSHDGYCLHDGVCMYIEALDKYACNCVVGYIGERCQYRDLKWWELRHAGHGQQQKVIVVAVCVVVLVMLLLLSLWGAHYYRTQKLLSKNPKNPYEESSRDVRSRRPADTEDGMSSCPQPWFVVIKEHQDLKNGGQPVAGEDGQAADGSMQPTSWRQEPQLCGMGTEQGCWIPVSSDKGSCPQVMERSFHMPSYGTQTLEGGVEKPHSLLSANPLWQQRALDPPHQMELTQ
modifications: Pro-epidermal growth factor
Fold Change, Decreased Expression from Baseline to Day 28: −1.7729

B12: FASLG (protein, UniProt P48023 130-281, looked up)
Tumor necrosis factor ligand …: QIGHPSPPPEKKELRKVAHLTGKSNSRSMPLEWEDTYGIVLLSGVKYKKGGLVINETGLYFVYSKVYFRGQSCNNLPLSHKVYMRNSKYPQDLVMMEGKMMSYCTTGQMWARSSYLGAVFNLTSADHLYVNVSELSLVNFEESQTFFGLYKL
Fold Change, Decreased Expression from Baseline to Day 28: −1.3614

B13: VEGFC (protein, UniProt P49767 112-227, looked up)
Vascular endothelial growth …: AHYNTEILKSIDNEWRKTQCMPREVCIDVGKEFGVATNTFFKPPCVSVYRCGGCCNSEGLQCMNTSTSYLSKTLFEITVPLSQGPKPVTISFANHTSCRCMSKLDVYRQVHSIIRR
Fold Change, Decreased Expression from Baseline to Day 28: −1.1727
